The numbers were not newly measured in paper PMC4963854, “Mapping Protein–Protein Interactions of the Resistance-Related Bacterial Zeta Toxin–Epsilon Antitoxin Complex (ε2ζ2) with High Affinity Peptide Ligands Using Fluorescence Polarization” (Toxins, 2016), which cites them from elsewhere.

For orientation: Kd means the equilibrium constant for the complex coming apart.

This data set concerns the target Zeta toxin (Streptococcus pyogenes) (UniProt Q54944).

Sequence of Epsilon antitoxin (Q57231 2-90): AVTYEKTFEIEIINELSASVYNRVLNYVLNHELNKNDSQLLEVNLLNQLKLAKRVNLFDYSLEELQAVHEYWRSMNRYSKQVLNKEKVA
Sequence of Zeta toxin (Streptococcus pyogenes) (Q54944 2-287): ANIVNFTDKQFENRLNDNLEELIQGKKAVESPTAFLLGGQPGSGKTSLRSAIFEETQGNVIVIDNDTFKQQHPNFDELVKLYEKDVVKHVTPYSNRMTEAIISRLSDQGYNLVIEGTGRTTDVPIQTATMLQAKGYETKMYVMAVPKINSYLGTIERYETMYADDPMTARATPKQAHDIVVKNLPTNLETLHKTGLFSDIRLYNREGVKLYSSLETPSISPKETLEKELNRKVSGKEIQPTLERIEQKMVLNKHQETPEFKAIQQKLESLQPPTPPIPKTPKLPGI

For Epsilon antitoxin (from UniProt Q57231), the equilibrium dissociation constant (Kd) is 1000 nM.
